Laboratory results reported in the domain aggregation screens of Martell et al. (2025).

Assay: soluble fraction after stress (log2 fold change); higher = more stays soluble; pooled small domains, quantitative proteomics
Conditions: stress: 50 degC
Method in brief: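 Each library was heated to 50°C as a stress step. The libraries, made up of small protein domains, were pooled and analysed at high throughput by quantitative proteomics. The reported value is the base-two logarithm of the fold change in each protein's soluble amount after stress, taken as a measure of aggregation propensity. The higher the value, the more protein stays in solution.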

Sequence	soluble fraction (log2)
HMVPTYEAYVGKEGLVVGTLRPAGTAEFDGERLDVVSEGEYLEAGTRVQIVRTEGRRIVVRKIN	0.0504
HMDRGDVTREALIKAAIEIFGRDGFHAASTRAIAERAGANQALIGYHFRGKLGLYHATFEYIIGKI	-0.315
HMSTEPLALVGKTGIAATVLRPSGRIEVDDKYYDAVSLGAFIEKGEMVNIVKYENLQLYVAKL	-0.0644
HMVSDAELTSQATTAITAYPGTSVEVKEGQAHLSGTFATEADKQAAIDALKKIQDVKDVHDMATV	0.123
HMSDYVLLYSGLNTSDTTFLAYSFQEKGIRYKMPNPDEIEVRVQDVDQARRIAAGAQLGGQVS	-0.424
HMTHEIKIKSHSLFASEGTKYQWYLNNIKINDATSQELEITSPGIYKLEMTNFDGDVIEKQIIVGLTNS	-2.94
HMEIETPEIRAIHDLLELLANKAKKPEQEQFVQAHPEVQWAKVEANKNGTFAVGKVKAYLKTLQA	-0.308
HMTGDIGAEAAKAAALAHAGVTESQTAKMKVDRDWDDGRLEYDVEFDVGRTEYEYTIDGVTGAVLEYEQDI	0.0136
HMSVTYRLLITSSPGQAEVFLDGKRVGITPFSARLAAGWYQVRVSKEGYNLWEQHVQLREDQRLTATLT	-0.471
HMDTQKYDLNDDGRFDVQDVTYLQIKIAGDGELTDNQKKIADYNNDGKIDVQDVTSAQMLIS	-0.0732
HMPTMTDIPIKIIRSRRRTLAIEVREGGEVIVRAPLYSRKAEIDAFVKAHENWIITKYNLMITKQN	-1.74
HMSSLTPRETEVLSRMAQGDANTSIAERLVITEKAVQKHINAIFAKLGLAEEPTSARRVLAVLAFLR	-0.512
HMEARYQLREVSLDGLRSGMILNADVLSTDGVLMARKGLEVSGLLRSRLEAFAKMERIEPTFKVLVPIAPP	-0.389
HMVITQVSTTQTDTTFQYHKVKPKETLFSISRLYEVSIDEIKTINPALNSRELMAGELLKLPIK	-0.0212
HMHLRYTYIYDNENRVTSKEASKWDSTQEAWVPYFKMNVSYVNNEVELSYARWNSKSNAYDSSIKKTI	-2.36
HMSILPGVYRHYKGNHYQVFYLAKHSETLEDMVVYQALYGERGIWVRPASMWNETVDDQGKQVKRFTYI	-0.24
HMEKINLLVENNDNYRLDKIIALNMEELSRTQIQEMIGQGLVLVNGKVEKASYKTKLNDQIEITIED	0.0401
HMTPKVAVPSFVGWKFEDVERQLGTMGLIRGKVDNHPSEEYSEGRVIWQSVLGEVEKGKVIDFWVSTGPE	-0.0362
HMQDQVTLIVQVNGKLRGQISISTDATKELIEQTALANENVQKFVDGQSIKKIIIVPGRLVNIV	-1.12
HMEVSTRQVRAALRDIIEAEDKKRPLSDEAITARLREQGLPVARRTVAKYREQMGILAARLRK	-0.309
HMPVISGQDLRVLIRDTGRERDQGISFLDDGTMVVVEDARRLIGQEVTATVTRVHQTQTGRIVFAHLSN	0.0684
HMYPDNSGDIQQLAQNIFRQENVSVDRDGLALISSRLGSDHAATRSEIEKLALLAGPGGTLTFETISEVLG	-0.144
HMELNDEELIKGIQELLTKIGYDPGEINGVLGIKTSSAISAFQQSRNKAITGEADLDLLVQLQIELRKITT	-0.674
HMENQMIIYIDENDENKRLDSYLSEITPDYSRSKIQNFIKNGNVTVNDSNKKPSYLLKENDKISFELPQQ	0.00635
HMYRLDVEISDEIKRDIDEETLSEIKGIIAEDPRPSYQNDETRIYRFTFAGREISFRVKDRTATVTEIL	-0.0821

Sequence	soluble fraction (log2)
HMLVPWKSANLFKLVEPNFRLAERKIPMLPSADREKLQEIMSDMKDAIVDNDKMALMKLDEELTDFLFDFV	-1.22
HMGGRTITVGISENMTVKDIAQMLEEKGLIEDARLFVVQELLSAYHKEIKPGIYDLSTDMTAAQMLEIMS	-0.464
HMLDQAVPVFETPKYAVSYIQNRLVEMKAASPEEAASRFYESISESERRGLFEALLIKEAEES	-0.00154
HMKKVRIPDDPEEAYRKALKTAMNIVGYKDNTEFTLREKLSERGYSGETVDAVAEFMKSKGYV	0.245
HMVVLNQEQIKFIDHYLQVSKVRYVDVRSELTDHIATAVELKMQDEALDFYEAFKAFIAVNKSQLLQRN	-1.45
HMNVAVGNSKLVGVAGERAYFVNGVGAAARTLSLQVGDALPTGEKVRRIERDGVTMTGASGDVRLSVLP	0.0813
HMGESVVVPDLRGKTLEEARAILKKVDLDYEINDSTYSKTAVPGTIRDIVPAPGSHVKAGRILFVSING	-0.145
HMQSRYALLAGMLRARITEGDWVPGSAIPAETVLAKEHGVALGTMRQAIALLVSQGLLERQHGRGTFVRS	-1.16
HMGVRVEVDAVTPPGAMASGSVVFSDGESKKWSVDQFGRLAMTGGAPDYKPSDQDVMEFQQQLEQSL	0.054
HMGNKWKPIILYLLSNGSMRFGMLNALIPTISKKVLTNQLKELENDGLLLRQSFAEIPPRVEYSLTEKA	-1.58
HMGASTQLVEIKNAYENGEWQNVIDLAGKLHEKYNGSEEDKEAQEMAKNSQSKLDEAAAAKAAEEA	-0.033
HMVEVPEQLRDLLERSIEDLAELSVRSRNSLQKENIQTLGDLVQRTEEEMLGIENFGKKSLTEIAAFL	-0.101
HMLSKEFRFFTYLLESYAQHKNTTAGAVLKTLDEKGLTDFVYKMYDLYHVEAIENAYMDLDSLIATGKPA	-2.98
HMQLPFTPREHEITQLLSRGLSNRQIAEALSLSVRTVEGHIYQASTKLGISSRSELAVLVGQFA	-1.89
HMSDPELNDNEKKIYDIIFNKKSMDLTELKNLSELSNKQWDKGIKSLSKQDFVKVIKTEEALIVELV	-0.302
HMSADDSDDRKGIDAWLTQLLANGSVKATEVYSAADAAGYSKDQAKRAKRRLAIEAVREAMDGPWFWRLD	-0.616
HMVSDSAELSAFVADVIKENAQAVADYKGGKTNVFGWLMGQIIKKSGGKATPAAAAALLKAELEK	0.0521
HMRRVGTALNRSHKVSYGESIQSIAARYNVNPTMLREYNRLKPEATITPGQILRIPPATIAS	0.00426
HMLTGISALKPTEAFPDEIFYEIFEIEDNIERTQYIESLRNTARQLKRVTEFNNLYKSFVLDYAQRQKQ	-1.51
HMHLYDMYNLTEKEISIIRLIANGLNNKEISQELFLSEGTIKNNITNILAKLELRDRTQLAIFAFKNKIVI	-0.484
HMAEPLMTQIVEIEYADAEGLRENLEQFLTRLDEKTLLGSVLVDRHTNSLIIQAVRSDLERMLPLIETLDR	-0.731
HMGRLNMRRIRDVLRLKFGQGLSERQVAASLGLSKTSVGTYLHRARQAGLTWPLPQGLDDDGLELLLFP	-1.29
HMEAKTSNPDYHARLGLTEGEGNDSALGVSVKAAEGGFGLLFGNKVGSDQLVRFANEDQVWLVNRALS	0.0188
HMDDPWHNLANAIVAVAADDYRSALRNEDEGLLKSLELFFHSEWYRILTDVDADRLLGMLRRERS	-1.62
HMNQAIIVPDVKGLPLEEATTFFENNDLRYTVIDSVYTKDVPPGAIYEMVPGAGSKVKEGRIIFVTLNAR	-0.314

Sequence	soluble fraction (log2)
HMKVFTEDEMLEKIKEYLSTNSYINRRVMETQFGLRQNIALKWLKHFTEIGVLRKEGERNSPIYFLNN	≥ 0.62
HMYPEDMMSLMRRALRLINHLESNRKDRHNSRQLELTESKIRRLARYYKGRGLIETEWAYKRDQLRLLV	-0.398
HMENHILIIDDDLMLLKTAEEILSDQYNVSVAKSGIQALNLLNKNIIPDLILLDIDMPQMDGYETL	-0.0279
HMAVNSALVQRNWLIGYRIAEEELQGDNRAEYGASIIKKLAKELTAEYGKGYTKTNLYHFYSFYKT	-0.136
HMEKTLAERVNDILAEIKMTKQELAMQLNISRSAVSQYLNGKYSSNPEAIEARLRDFVSSYDRG	-0.0754
HMFEFFKGIYSISLLKKDGIFFVTFKDENKEAVKHIFPEKPTALELGIKVMEMFEYKERYDGII	-0.227
HMSREEFLTELRKALQGRVSQQTVNDNLRYYEEYILTESHKGKTEAEVIAELGNPRLLAKSIIDAENAT	0.107
HMVSTDPVHLFNLGTANRRAGRASEAITSYRKFMEAAPQHPQVPEARAYIHDMEVLLQERQKSEQAASQLS	0.0843
HMDSVVPNVVGMTAEKANKALTDAGLNVKITGATIGSGAVVHSQSIPAGTVTSKGTVVSIEMRFAAAEGD	-0.135
HMGVSAGQVRGLIRNLIAGEDKSKPLSDLALERELEKREIRISRRTVAKYRAELGIPNSDQRRYLP	-0.642
HMENEIPVPELVGMSEADAAAKLASLGLERDTQREATADEESVGKVLRQEPTPGEYVDEGHKVTIWVGE	-0.0704
HMDAGIVVPDTYNKPLAEAVASLEGEGFRTEKKEGYSDTVAKGNVMSQNPEAGTNAERGSTVTIVISQGPQ	0.0495
HMSDIQKGTQINLVNEPLYVSSKTSIVSTYKTGTYYTWGFEANNRIAITNKLENIGVKGQVTGWINKP	-1.1
HMRLIALPSVTDISIRQAEATLMSIGIKVSSIQYAPSEYKDLVLEVKYRGQSIIQGAKIPEGSSVVLVAGN	-1.56
HMVSTSVTVTGDLNVRADSRADSDLVGALIPGQTVTRLAVLDNGWSKIRFDDGAGTVVEGYVLSEYLQADG	0.0817
HMSEYTRGELVSSLEAGEVAAVSIRPNRETPTGEAQIVLSDGQHRVLYVTDVREIEELVSSYGLNPQVEK	0.233
HMFKINNIIVSGLSEKSNLQTSEEIKNILFENIFFIKKDVLFKILEKNNLINSFEIKKIYPDTIEVKIKKT	0.153
HMSGPSDRDLFDEALALLSGSGREPDYHEARIRLGTLVEQFPESKWAEGAKALLSMLDRVSALQV	0.246
HMHDYTTIIGVIELRLNKISYDNVQKRYRIGRSGISLIMERYRDSGLSLDDLKQMPAEKVVNLIYPKD	-0.954
HMSRDYKTELQERLQVNGPVKIEYQVIAEDESKPSFKVQLLVNDKKISEGQGRNKKAAEQQAAQAAL	0.0625
HMFETLVLALAQAWPAERGPVEALQFEGGRLSLQRSGFADEQVEALRQRLSSEGWTLQTEQGRLILNKAG	-0.884
HMSPREDQQSRKQHILEAAAVLFAERGYYKTTTADVARAVGVTQPYVFHFFKSKEELYLAVL	-0.0115
HMLNPMILLTKGGENIRLDKFLSSHLSDLSRTQIQKMVKEGLVLVNGEPSKVGLKLDGSETIQYTLPK	-0.00634
HMLAVEKIEFVGNERIAAADLESALSALYDRPMTTISDDEIAKLLSGFSLIETFTSQAEPPHTLRVNIRE	-0.141
HMSNGFFELKTSQQDELIDLIDSHTNFVRTKIEGELITAFLKLPMDAEEFNKLLFTNGIILSHLVKRK	-0.461
